The target of experiment [1] is T1, STREP-TACTIN M2 covalently coupled to Sephadex G50 stationary phase (Streptomyces avidinii, UniProt P22629 38-163, covalently coupled to cyanogen bromide (CNBr) activated Sephadex G50 resin).
T1 construct: Here it is immobilised on the chromatography matrix; also called immobilized Strep-Tactin reagent; selection reagent
The experiment can be described thus: loading of tagged Fab onto Strep-Tactin Sephadex G50 resin.
Method: A 50% suspension of Sephadex G50 contained approximately 70 μg of covalently coupled 7 Strep-Tactin®/mL of the bead suspension. […] The suspension was then filled in a plastic minicolumn with a 90 micrometer frit at the bottom. The column was equilibrated with PBS (phosphate buffered saline) containing 0.5% bovine serum albumin (PBSA buffer) to give a bed volume of 1 mL.

For experiment [2], the target named is T2, CD4 on the surface of T cells from a human donor apheresis sample (human, UniProt P01730 26-458).
T2 construct: whole, on cells; also called selection marker
The experiment can be described thus: column affinity selection of T cells from a human apheresis sample.
Method: The column was equilibrated with PBS (phosphate buffered saline) containing 0.5% bovine serum albumin (PBSA buffer) to give a bed volume of 1 mL.
As a control, an apheresis sample was loaded onto the anti-CD3 affinity column but without incubation in the presence of the anti-CD3/anti-CD28 oligomeric stimulatory reagent.

The values below come from patent US20220002669A1 (JUNO THERAPEUTICS, published 2022).

B1: anti-CD4 binding Fab fragment obtained from m13B8.2, heavy chain carboxy-terminally fused with a Twin Strep-Tag (Fab, V domains shown)
VH: QVQLKQSGPGLVQPSQSLSITCTVSGFSLTTFGVHWVRQSPGKGLEWLGVIWASGITDYNVPFMSRLSITKDNSKSQVFFKLNSLQPDDTAIYYCAKNDPGTGFAYWGQGTLVTVSA
VL: DIQMTQSPASLSASVGETVTFTCRASEMIYSYLAWYQQKQGKSPQLLVHDAKTLAEGVPSRFSGGGSGTQFSLKINTLQPEDFGTYYCQAHYGNPPTFGGGTKLEIKR
notes: also called anti-CD4 Fab
B1: the binding result in experiment [1] and in experiment [2] was “binds” each time.
